Test results from PMC3940198.

Molecular target: Burkholderia cenocepacia cytosolic carboxypeptidase (BcCCP) (Burkholderia cenocepacia J2315)
Experiment: SEC-MALS; Superdex 200 10/300, 50 mM Tris-HCl, 250 mM NaCl pH 7.5; Wyatt miniDAWN TREOS and Optilab T-rEX detectors

- stoichiometry N: 4
Substance: Burkholderia cenocepacia cytosolic carboxypeptidase (BcCCP) (enzyme)
